This assay concerns human SHSY-5Y cells. The experiment in a line: Neuroprotection of differentiated SHSY-5Y cells against parkinsonian neurotoxins (CFDA cell viability). As to conditions: pre-treatment, rhGDNF 50 ng/ml, CDNF-MDCs 25-250 ng/ml. The assay is classed as cell-based. On the procedure: Neuroprotection was tested in the well-established neuronal model of human SHSY-5Y cells (Lopes, F. M.,. et al. (2010) Brain Res. 1337, 85-94) treated with parkinsonian neurotoxins. Human SHSY-5Y cells were grown in 24 well dishes and differentiated into neuron-like cells by treatment with 10 μM retinoic acid (RA) for 7 days (FIG. 8A).
Cell viability was quantified by the CFDA assay as described previously (Sandhu, J. K., et al. (2009) Neurobiol. Dis. 33, 405-414.).
Recombinant human GDNF at 50 ng/ml was used as a positive control.

The source of these data is US20250177557A1, “METHODS OF PRODUCING MICROBUBBLE DRUG CONJUGATES, VIRAL GENE THERAPY MICROBUBBLE CONJUGATES AND TARGETED MICROBUBBLES” (priority 2022, published 2025).

B1: rhGDNF: Recombinant human GDNF, positive control (protein, UniProt P39905 78-211, looked up)
Glial cell line-derived …: SPDKQMAVLPRRERNRQAAAANPENSRGKGRRGQRGKNRGCVLTAIHLNVTDLGLGYETKEELIFRYCSGSCDAAETTYDKILKNLSRNRRLVSDKVGQACCRPIAFDDDLSFLDDNLVYHILRKHSAKRCGCI
On to B1, for which the “Neuroprotection against thapsigargin (cell viability)” value (1.0 μM thapsigargin ~16 h) is given as “protected from cell death”. Besides, the “Neuroprotection against MPP+ (cell viability)” value (1.0 mM MPP+ ~16 h) is “protected from cell death”.
